Data taken from article PMC3585964, “Tissue Inhibitor of Metalloproteinases-3 Peptides Inhibit Angiogenesis and Choroidal Neovascularization in Mice” (PLoS ONE, 2013).
“Also recorded” adds a separate entry of the source. Where two headings read alike, the source gives them in different places. Ends that are not written are not given here. Peptide text beside a SMILES is read from it.

Legend:
[1] = target: VEGFR-2 (KDR/Fc chimera) binding to VEGF (Homo sapiens, UniProt P35968); assay: Competitive ELISA, binding of sVEGFR-2/Fc to immobilized VEGF
Description: (§1) 96 well EIA/RIA strip plates (COSTAR) were coated with 80 ng/ml recombinant VEGF overnight at 4°C, washed and blocked with blocking buffer (1% BSA and 5% sucrose) overnight at 4°C. Series of dilutions were prepared for recombinant proteins representing WT-TIMP-3, NT2:CT3 and N-T3 in PBS or synthetic peptides corresponding to T3-loop 5, T3-loop 6, T3-N or T3-tail peptides in 0.5 M Tris-HCl (pH 7.5). The diluents were mixed with 50 ng/ml recombinant human VEGFR-2 (KDR/Fc chimera, recombinant human VEGFR-1 (Flt-1)/Fc chimera (R&D Systems, Minneapolis, MN) or control human lgG (Sigma Aldrich, St Louis, MO). The mixtures were then added to the VEGF-coated well in a final volume of 100 µL in PBS and incubated for 2 hours at room temperature. Bound VEGFR-2 was detected by HRP-conjugated anti-human lgG(Fc specific) (1∶1000).

[2] = tested on: angiogenesis; VEGF binding to VEGFR-2; settings: cited from earlier work
Description: Tissue inhibitors of metalloproteinases (TIMPs) constitute a family of four proteins (TIMP-1, TIMP-2, TIMP-3 and TIMP-4) that are endogenous inhibitors of […] and play a critical role in the maintenance of extracellular matrix (ECM) homeostasis. In general, all four TIMPs are broad-spectrum inhibitors of the MMP family, with some differences in specificity. […] Based on these studies we designed experiments t ... || Sorsby fundus dystrophy (SFD), an autosomal dominant, fully penetrant, degenerative disease of the macula, [25] is manifested by symptoms of night blindness or sudden loss of acuity, usually in the third to fourth decades of life due to submacular neovascularization, [27], [28], [29]. SFD is caused by specific mutations in the tissue inhibitor of metalloproteinases-3 (TIMP-3) gene, [31], [32], [33], [34], [35], [36], [37], most of which introduce an unpaired cysteine at the C-terminus of the protein. We have recently reported that S156C mutation in TI ...

[3] = tested on: VEGFR-1 (Flt-1)/Fc chimera binding to VEGF; assay: Competitive ELISA, binding of sVEGFR-1/Fc to immobilized VEGF; design: species or system human; settings: 50 ng/ml sVEGFR-1 (sFlt-1)
Description: as §1

[4] = read-out: IC50, inhibition of VEGF binding to sVEGFR-2/Fc chimera (recombinant proteins), competitive ELISA, 50 ng/ml human VEGFR-2/Fc, plate coated with 80 ng/ml VEGF, 2 h room temperature, proteins in PBS

VEGFR-2 (KDR/Fc chimera) binding to VEGF, sequence (P35968 with tags, fused parts or gaps limits assumed): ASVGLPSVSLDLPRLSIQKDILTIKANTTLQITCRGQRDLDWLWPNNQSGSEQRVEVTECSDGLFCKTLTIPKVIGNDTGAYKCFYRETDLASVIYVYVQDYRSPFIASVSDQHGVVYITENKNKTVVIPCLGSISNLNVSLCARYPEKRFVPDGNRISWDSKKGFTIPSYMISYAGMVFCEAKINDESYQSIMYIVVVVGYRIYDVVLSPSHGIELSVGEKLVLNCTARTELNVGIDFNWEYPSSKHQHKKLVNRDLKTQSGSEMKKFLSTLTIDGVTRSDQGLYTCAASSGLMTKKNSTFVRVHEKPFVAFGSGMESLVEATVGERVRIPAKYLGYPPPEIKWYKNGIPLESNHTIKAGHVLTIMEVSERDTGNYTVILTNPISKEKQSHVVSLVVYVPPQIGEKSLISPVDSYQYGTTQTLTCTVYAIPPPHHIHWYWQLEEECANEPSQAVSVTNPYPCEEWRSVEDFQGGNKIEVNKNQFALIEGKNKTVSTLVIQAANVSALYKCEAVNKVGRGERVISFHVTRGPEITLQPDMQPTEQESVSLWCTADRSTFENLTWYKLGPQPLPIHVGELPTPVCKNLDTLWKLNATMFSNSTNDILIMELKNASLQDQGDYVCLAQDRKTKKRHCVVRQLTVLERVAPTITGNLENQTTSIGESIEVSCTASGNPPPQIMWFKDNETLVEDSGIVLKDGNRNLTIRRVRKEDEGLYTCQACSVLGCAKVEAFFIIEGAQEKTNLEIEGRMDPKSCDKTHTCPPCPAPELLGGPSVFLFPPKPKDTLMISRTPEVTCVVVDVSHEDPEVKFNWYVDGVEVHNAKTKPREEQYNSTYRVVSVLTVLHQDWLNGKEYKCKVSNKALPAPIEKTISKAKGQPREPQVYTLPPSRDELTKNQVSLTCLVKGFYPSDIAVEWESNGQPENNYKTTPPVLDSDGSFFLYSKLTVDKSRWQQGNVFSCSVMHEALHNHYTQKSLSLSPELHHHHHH

CC[C@H](C)[C@H](NC(=O)[C@H](CS)NC(=O)[C@H](C)NC(=O)[C@H](Cc1ccc(O)cc1)NC(=O)[C@H](Cc1c[nH]cn1)NC(=O)[C@H](CCCCN)NC(=O)[C@H](CO)NC(=O)[C@H](CCC(N)=O)NC(=O)[C@H](Cc1ccc(O)cc1)NC(=O)CNC(=O)[C@@H]1CCCN1C(=O)[C@H](Cc1ccc(O)cc1)NC(=O)CNC(=O)[C@H](Cc1ccccc1)NC(=O)[C@H](CC(N)=O)NC(=O)[C@H](CO)NC(=O)[C@H](CC(C)C)NC(=O)[C@H](CCSC)NC(=O)[C@H](CC(=O)O)NC(=O)[C@@H](NC(=O)[C@H](Cc1c[nH]c2ccccc12)NC(=O)[C@H](CC(C)C)NC(=O)[C@H](CS)NC(=O)[C@H](CCC(=O)O)NC(=O)[C@H](CC(N)=O)NC(=O)[C@@H](N)CCCCN)[C@@H](C)O)C(=O)N[C@@H](CCCNC(=N)N)C(=O)N[C@@H](CCC(N)=O)C(=O)N[C@@H](CCCCN)C(=O)NCC(=O)O [T3-loop 6] (H-KNECLWTDMLSNFGYPGYQSKHYACIRQKG-OH)
IC50 [1]: 2 µM

GYCSWYRGWAPPDKSIINATDP [T3-tail]
IC50 [1]: 5 µM

B1: NT2:CT3: NH2-terminal TIMP-2: COOH-terminal TIMP-3 chimera (residues 1–126 of TIMP-2 and residues 122–188 of TIMP-3) (protein)
chain: CSCSPVHPQQAFCNADVVIRAKAVSEKEVDSGNDIYGNPIKRIQYEIKQIKMFKGPEKDIEFIYTAPSSAVCGVSLDVGGKKEYLIAGKAEGDGKMHITLCDFIVPWDTLSTTQKKSLNHRYQMGCCKIKSCYYLPCFVTSKNECLWTDMLSNFGYPGYQSKHYACIRQKGGYCSWYRGWAPPDKSIINATDP
modifications: Limits are in mature numbering (TIMP-2 offset +26, TIMP-3 offset +23); Methods print TIMP-2 1-127 and Results print 1-126; the Methods limit i
IC50 [1, 4]: 0.028 µM

B2: S156C mutation in TIMP-3: TIMP-3 with the S156C mutation (Sorsby fundus dystrophy) (protein, UniProt P35625 24-211, looked up, variant S156C)
Metalloproteinase inhibitor 3: CTCSPSHPQDAFCNSDIVIRAKVVGKKLVKEGPFGTLVYTIKQMKMYRGFTKMPHVQYIHTEASESLCGLKLEVNKYQYLLTGRVYDGKMYTGLCNFVERWDQLTLSQRKGLNYRYHLGCNCKIKSCYYLPCFVTSKNECLWTDMLSNFGYPGYQCKHYACIRQKGGYCSWYRGWAPPDKSIINATDP
Effect of TIMP-3 mutation on angiogenesis (literature) ([2]; ref [18]): induces increased angiogenesis

B3: WT-TIMP-3: Full length, recombinant human TIMP-3 purified from stably transfected mouse myeloma cells (protein, UniProt P35625 1-211, looked up)
chain: MTPWLGLIVLLGSWSLGDWGAEACTCSPSHPQDAFCNSDIVIRAKVVGKKLVKEGPFGTLVYTIKQMKMYRGFTKMPHVQYIHTEASESLCGLKLEVNKYQYLLTGRVYDGKMYTGLCNFVERWDQLTLSQRKGLNYRYHLGCNCKIKSCYYLPCFVTSKNECLWTDMLSNFGYPGYQSKHYACIRQKGGYCSWYRGWAPPDKSIINATDP
modifications: full-length
notes: Full length, recombinant human TIMP-3 purified from stably transfected mouse myeloma cells
Effect of recombinant proteins on VEGF-VEGFR-2 complexes (in words) ([1]; competitive ELISA, 50 ng/ml sVEGFR-2, proteins in PBS): inhibit sVEGFR-2-VEGF complexes in a concentration-dependent manner; also recorded: markedly decreased
IC50 [1, 4]: 0.041 µM
Blocking of VEGF binding to VEGFR-2 / angiogenesis inhibition (literature) ([2]; independent of MMP inhibitory activity, ref [8]): potent angiogenesis inhibitor
Inhibition of angiogenesis independent of MMP inhibition (literature) ([2]; ref [8], [21], [22]): Inhibition of angiogenesis
Effect of recombinant proteins on VEGF binding to VEGFR-1 (in words) [3]: unable to block sVEGFR-1-VEGF complexes; also recorded: neither full length WT-TIMP-3 nor COOH-terminal TIMP-3 blocked the binding of VEGF to VEGFR1
